Columns and labels:
SaPriA = biological target: T1, SaPriA (Staphylococcus aureus, UniProt Q2G266); assay: ATPase assay, thin-layer chromatography with autoradiography; assay type: biochemical; conditions: 0.4 mM [γ-32P]ATP, 0.12 μM SaPriA, 0.1 μM PS4/PS3-dT30 DNA, 40 mM Tris pH 8.0, 10 mM NaCl, 2 mM DTT, 2.5 mM MgCl2, 1 h; labelled compound
T1 construct: gene priA; recombinant
T1 sequence (Q2G266 1-802): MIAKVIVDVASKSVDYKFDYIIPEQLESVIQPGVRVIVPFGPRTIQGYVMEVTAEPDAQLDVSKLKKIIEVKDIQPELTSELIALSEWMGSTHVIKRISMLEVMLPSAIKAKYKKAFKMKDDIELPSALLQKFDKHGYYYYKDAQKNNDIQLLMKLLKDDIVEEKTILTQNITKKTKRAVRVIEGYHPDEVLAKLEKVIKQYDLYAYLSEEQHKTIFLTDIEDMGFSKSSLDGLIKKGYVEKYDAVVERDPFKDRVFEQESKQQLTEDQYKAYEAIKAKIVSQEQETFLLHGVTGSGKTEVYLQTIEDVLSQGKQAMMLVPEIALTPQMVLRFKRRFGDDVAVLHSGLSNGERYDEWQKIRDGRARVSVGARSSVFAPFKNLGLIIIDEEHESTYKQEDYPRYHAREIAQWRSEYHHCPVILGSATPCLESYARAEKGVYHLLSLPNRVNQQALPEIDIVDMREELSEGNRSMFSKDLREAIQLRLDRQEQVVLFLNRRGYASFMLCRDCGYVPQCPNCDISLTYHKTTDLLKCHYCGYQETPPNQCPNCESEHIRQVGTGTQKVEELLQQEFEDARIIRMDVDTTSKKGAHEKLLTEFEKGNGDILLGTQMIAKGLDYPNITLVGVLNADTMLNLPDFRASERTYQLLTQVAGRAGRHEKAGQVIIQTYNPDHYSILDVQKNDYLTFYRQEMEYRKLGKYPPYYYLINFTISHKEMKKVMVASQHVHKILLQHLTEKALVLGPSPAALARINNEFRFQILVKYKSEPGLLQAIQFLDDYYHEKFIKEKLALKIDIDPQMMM

[1] = biological target: SaSsbC with a His tag (product of S. aureus ssb gene SAAV2152) (S. aureus subsp. aureus ED98); assay: cross-linking; glutaraldehyde (0.1% to 5%), SaSsbC 2.5 uM, 4 C, 30 min, Coomassie-stained SDS-PAGE; self-association, tetramer
[2] = biological target: SaSsbC with a His tag (product of S. aureus ssb gene SAAV2152) (S. aureus subsp. aureus ED98); assay: SEC; gel filtration, Superdex 200 prep grade, SaSsbC 2 mg/mL in Buffer B (20 mM HEPES, 100 mM NaCl, pH 7.0), column calibrated with proteins of known mass; self-association, tetramer

stoichiometry N [1]	stoichiometry N [2]	Compound	ATPase assay, thin-layer chromatography with autoradiography (SaPriA)
		Nc1ncnc2c1ncn2[C@@H]1O[C@H](COP(=O)(O)OP(=O)(O)OP(=O)(O)O)[C@@H](O)[C@H]1O [ATP]	SaPriA could hydrolyze ATP on its own
4	4	SaSsbC with a His tag (product of S. aureus ssb gene SAAV2152) (natural protein)	

Source: publication PMC5945547, “SAAV2152 is a single-stranded DNA binding protein: the third SSB in Staphylococcus aureus” (Oncotarget, 2018)
